Measurements from article PMC5291697.

Biological target: Ncore-MoRE (MeV N with MoRE relocated from Ntail to Ncore position 138) (measles virus (MeV-Edm strain))
Test: co-IP

B1: standard measles virus (MeV) phosphoprotein P, full length (natural protein)
chain: MATLLRSLALFKRNKDKPPITSGSGGAIRGIKHIIIVPIPGDSSITTRSRLLDRLVRLIGNPDVSGPKLTGALIGILSLFVESPGQLIQRITDDPDVSIRLLEVVQSDQSQSGLTFASRGTNMEDEADQYFSHDDPISSDQSRFGWFENKEISDIEVQDPEGFNMILGTILAQIWVLLAKAVTAPDTAADSELRRWIKYTQQRRVVGEFRLERKWLDVVRNRIAEDLSLRRFMVALILDIKRTPGNKPRIAEMICDIDTYIVEAGLASFILTIKFGIETMYPALGLHEFAGELSTLESLMNLYQQMGETAPYMVILENSIQNKFSAGSYPLLWSYAMGVGVELENSMGGLNFGRSYFDPAYFRLGQEMVRRSAGKVSSTLASELGITAEDARLVSEIAMHTTEDKISRAVGPRQAQVSFLHGDQSENELPRLGGKEDRRVKQSRGEARESYRETGPSRASDARAAHLPTGTPLDIDTASESSQDPQDSRRSADALLRLQAMAGISEEQGSDTDTPIVYNDRNLLD
  coprecipitation efficiency relative to standard N (% of standard N): 75
